According to the supplement of paper PMC10065799, “High-throughput profiling of sequence recognition by tyrosine kinases and SH2 domains using bacterial peptide display” (eLife, 2023):

What was measured:
SHP2-C SH2 = test: SH2 binding enrichment of the phosphorylated peptide, bacterial display (enrichment ratio); higher = better substrate or ligand; peptides without Tyr show the background
Grb2 SH2 = Grb2 SH2 (UniProt P62993); test: as above
c-Src SH2 = test: as above
FGFR3 = FGFR3 (UniProt P22607); test: phosphorylation enrichment, bacterial display (enrichment ratio); higher = better substrate or ligand; peptides without Tyr show the background
c-Src = test: as above
Jak2 = Jak2 (UniProt O60674); test: as above
Chain of Jak2 (O60674 whole entry, looked up): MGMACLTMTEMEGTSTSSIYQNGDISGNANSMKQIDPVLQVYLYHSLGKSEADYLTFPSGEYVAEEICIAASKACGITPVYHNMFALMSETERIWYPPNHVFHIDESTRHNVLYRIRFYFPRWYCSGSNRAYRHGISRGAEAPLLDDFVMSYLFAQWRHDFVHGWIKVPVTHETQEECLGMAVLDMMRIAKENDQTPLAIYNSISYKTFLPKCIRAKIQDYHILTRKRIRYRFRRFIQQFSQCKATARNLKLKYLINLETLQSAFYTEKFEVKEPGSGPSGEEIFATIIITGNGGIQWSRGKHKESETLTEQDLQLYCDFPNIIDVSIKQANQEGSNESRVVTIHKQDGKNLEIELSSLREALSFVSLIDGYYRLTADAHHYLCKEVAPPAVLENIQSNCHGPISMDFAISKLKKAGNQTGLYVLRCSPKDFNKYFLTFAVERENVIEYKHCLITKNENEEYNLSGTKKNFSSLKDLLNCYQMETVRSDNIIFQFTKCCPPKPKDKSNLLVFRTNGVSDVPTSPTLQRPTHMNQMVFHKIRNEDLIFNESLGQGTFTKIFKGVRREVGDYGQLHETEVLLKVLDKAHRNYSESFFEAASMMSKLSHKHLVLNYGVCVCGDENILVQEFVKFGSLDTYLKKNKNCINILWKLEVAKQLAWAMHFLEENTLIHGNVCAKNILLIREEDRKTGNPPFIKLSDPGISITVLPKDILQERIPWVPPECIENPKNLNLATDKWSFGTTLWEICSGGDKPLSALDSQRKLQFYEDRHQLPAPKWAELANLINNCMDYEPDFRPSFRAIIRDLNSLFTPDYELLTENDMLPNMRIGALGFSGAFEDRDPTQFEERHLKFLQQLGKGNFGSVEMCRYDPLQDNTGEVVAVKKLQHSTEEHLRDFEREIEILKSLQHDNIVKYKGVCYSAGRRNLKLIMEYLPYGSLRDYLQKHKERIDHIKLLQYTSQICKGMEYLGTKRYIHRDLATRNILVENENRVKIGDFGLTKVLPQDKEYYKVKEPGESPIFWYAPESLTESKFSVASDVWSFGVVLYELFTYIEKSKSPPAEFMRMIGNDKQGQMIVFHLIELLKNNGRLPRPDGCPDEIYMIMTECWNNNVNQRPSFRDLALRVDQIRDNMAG

Fer (mouse) = test: as above
AncSZ = test: as above
EPHB1 = EPHB1 (UniProt P54762); test: as above
Fyn = Fyn (UniProt P06241); test: as above
Chain of Fyn (P06241 whole entry, looked up): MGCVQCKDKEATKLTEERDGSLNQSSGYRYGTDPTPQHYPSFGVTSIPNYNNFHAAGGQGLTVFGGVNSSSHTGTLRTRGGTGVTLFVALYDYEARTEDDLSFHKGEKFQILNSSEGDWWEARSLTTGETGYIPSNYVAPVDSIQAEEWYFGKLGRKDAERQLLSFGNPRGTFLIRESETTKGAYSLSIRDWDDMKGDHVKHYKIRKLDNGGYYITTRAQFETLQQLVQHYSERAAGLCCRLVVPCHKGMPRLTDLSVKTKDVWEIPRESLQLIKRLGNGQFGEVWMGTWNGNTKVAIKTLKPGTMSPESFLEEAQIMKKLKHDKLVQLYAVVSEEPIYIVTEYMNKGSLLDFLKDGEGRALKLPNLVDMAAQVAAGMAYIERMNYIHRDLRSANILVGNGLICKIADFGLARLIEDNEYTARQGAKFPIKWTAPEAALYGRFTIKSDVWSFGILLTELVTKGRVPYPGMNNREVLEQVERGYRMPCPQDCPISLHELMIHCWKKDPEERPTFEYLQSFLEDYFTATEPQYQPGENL

Fes = Fes (UniProt P07332); test: as above
MERTK = MERTK (UniProt Q12866); test: as above
c-Abl (mouse) = test: as above
FGFR1 = FGFR1 (UniProt P11362); test: as above
Chain of FGFR1 (P11362 whole entry, looked up): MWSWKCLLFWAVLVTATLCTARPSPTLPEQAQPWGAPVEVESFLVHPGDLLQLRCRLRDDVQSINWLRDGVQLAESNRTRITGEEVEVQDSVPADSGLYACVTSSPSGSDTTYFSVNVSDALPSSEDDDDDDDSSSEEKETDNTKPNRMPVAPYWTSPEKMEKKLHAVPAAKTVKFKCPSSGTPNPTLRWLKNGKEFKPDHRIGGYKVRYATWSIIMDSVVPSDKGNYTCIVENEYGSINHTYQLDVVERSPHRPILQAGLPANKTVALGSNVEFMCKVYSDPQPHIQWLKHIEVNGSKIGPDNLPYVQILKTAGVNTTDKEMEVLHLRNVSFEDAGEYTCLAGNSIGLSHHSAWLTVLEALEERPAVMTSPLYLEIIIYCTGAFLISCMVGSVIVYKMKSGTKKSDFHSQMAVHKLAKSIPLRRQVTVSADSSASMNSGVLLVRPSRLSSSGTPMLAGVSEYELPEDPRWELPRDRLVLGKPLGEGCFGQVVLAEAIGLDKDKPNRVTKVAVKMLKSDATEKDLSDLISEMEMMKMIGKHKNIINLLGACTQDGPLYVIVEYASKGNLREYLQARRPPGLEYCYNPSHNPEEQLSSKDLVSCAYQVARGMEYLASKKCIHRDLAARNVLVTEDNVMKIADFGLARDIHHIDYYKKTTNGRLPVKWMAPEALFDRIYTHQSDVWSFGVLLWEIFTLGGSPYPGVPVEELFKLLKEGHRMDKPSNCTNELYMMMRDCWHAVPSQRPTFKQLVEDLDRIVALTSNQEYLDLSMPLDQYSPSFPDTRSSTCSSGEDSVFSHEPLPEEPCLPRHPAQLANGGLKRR

Hck = Hck (UniProt P08631); test: as above
Chain of Hck (P08631 whole entry, looked up): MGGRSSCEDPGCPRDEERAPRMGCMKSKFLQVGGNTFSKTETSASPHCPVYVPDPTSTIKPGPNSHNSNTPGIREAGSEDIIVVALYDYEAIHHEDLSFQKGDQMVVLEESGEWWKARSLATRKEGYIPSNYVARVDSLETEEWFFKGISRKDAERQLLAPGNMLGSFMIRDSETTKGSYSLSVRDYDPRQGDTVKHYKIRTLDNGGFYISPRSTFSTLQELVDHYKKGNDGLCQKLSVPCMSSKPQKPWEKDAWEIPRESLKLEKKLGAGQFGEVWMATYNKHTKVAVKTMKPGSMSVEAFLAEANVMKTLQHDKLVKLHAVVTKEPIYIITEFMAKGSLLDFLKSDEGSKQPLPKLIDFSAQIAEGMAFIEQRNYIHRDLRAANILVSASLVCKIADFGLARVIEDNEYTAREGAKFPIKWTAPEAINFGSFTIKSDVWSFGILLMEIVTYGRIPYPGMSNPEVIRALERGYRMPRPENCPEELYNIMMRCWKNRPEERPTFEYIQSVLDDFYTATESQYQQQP

EPHB2 = EPHB2 (UniProt P29323); test: as above
Chain of EPHB2 (P29323 whole entry, looked up, the tested form may be a part): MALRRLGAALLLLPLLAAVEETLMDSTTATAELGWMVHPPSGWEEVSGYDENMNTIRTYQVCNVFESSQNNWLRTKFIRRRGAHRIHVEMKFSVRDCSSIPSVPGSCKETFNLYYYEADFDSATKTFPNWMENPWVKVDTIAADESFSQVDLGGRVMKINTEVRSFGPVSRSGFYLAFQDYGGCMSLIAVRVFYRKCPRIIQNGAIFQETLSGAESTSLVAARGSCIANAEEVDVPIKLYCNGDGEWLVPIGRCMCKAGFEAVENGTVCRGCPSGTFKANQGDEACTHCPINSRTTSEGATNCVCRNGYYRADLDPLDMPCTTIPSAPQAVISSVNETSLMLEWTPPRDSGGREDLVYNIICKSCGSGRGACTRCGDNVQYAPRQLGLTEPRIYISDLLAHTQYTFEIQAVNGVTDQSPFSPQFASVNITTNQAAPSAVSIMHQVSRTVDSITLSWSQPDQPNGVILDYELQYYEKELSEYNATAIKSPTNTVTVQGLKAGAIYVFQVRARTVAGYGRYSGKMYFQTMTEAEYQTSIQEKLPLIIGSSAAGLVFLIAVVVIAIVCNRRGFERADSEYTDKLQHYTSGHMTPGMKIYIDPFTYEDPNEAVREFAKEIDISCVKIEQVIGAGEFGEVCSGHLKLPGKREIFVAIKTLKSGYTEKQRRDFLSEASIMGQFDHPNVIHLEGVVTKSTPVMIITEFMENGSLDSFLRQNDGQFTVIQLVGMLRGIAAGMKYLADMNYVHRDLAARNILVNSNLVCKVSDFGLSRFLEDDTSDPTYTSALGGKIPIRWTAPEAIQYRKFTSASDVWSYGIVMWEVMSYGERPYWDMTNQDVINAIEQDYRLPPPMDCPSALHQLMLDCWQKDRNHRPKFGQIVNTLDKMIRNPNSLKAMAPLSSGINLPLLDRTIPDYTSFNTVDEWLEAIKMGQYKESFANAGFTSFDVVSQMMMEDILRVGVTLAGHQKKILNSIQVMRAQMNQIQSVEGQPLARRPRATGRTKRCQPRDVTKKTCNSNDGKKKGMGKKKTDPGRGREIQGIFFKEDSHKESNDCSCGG
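Throughout, for SH2 binding enrichment of the phosphorylated peptide, bacterial display: peptide library displayed on the E. coli surface as eCPX fusions, selected cells deep-sequenced, score is each peptide's frequency after selection divided by its frequency in the input.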
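Throughout, for phosphorylation enrichment, bacterial display: 11-residue human phosphosite peptides and single-mutation variants displayed on the E. coli surface, counted by deep sequencing, each peptide's frequency after selection divided by its frequency in the unselected input library; frequency after pTyr selection over input frequency; kinase dosed for 20-30% of maximal phosphorylation in three min.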

Chain of Grb2 SH2 (P62993 whole entry, looked up): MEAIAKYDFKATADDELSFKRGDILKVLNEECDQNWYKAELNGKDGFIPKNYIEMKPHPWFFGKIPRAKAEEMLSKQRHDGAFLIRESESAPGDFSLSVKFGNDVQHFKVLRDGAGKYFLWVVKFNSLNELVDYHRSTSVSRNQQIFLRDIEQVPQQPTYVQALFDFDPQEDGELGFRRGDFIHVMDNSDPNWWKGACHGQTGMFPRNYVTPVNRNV

Row | Sequence | SH2 binding enrichment (SHP2-C SH2) | SH2 binding enrichment (Grb2 SH2) | SH2 binding enrichment (c-Src SH2) | phosphorylation enrichment (FGFR3) | phosphorylation enrichment (c-Src) | phosphorylation enrichment (Jak2) | phosphorylation enrichment (Fer (mouse)) | phosphorylation enrichment (AncSZ) | phosphorylation enrichment (EPHB1) | phosphorylation enrichment (Fyn) | phosphorylation enrichment (Fes) | phosphorylation enrichment (MERTK) | phosphorylation enrichment (c-Abl (mouse)) | phosphorylation enrichment (FGFR1) | phosphorylation enrichment (Hck) | phosphorylation enrichment (EPHB2)
1 | QDKDLYPCPGT [RLF_Y671_R668K] | 0.801 | 0.832 | 0.658 | 0.785 | 0.483 | 0.996 | 0.562 | 1.36 | 0.701 | 0.652 | 1.18 | 0.613 | 0.726 | 0.744 | 0.625 | 0.857
2 | STEAIYRRFSK [SH3PXD2B_Y42_YF] | 0.553 | 0.812 | 0.472 | 0.408 | 0.45 | 0.353 | 0.402 | 0.431 | 0.334 | 0.506 | 0.486 | 0.372 | 1.2 | 0.493 | 0.379 | 0.293
3 | KMKGDYFRSLA [YWHAG_Y130_Y133S_YF] | 0.825 | 0.917 | 0.753 | 0.602 | 0.456 | 0.633 | 0.436 | 0.676 | 0.457 | 0.399 | 0.675 | 0.437 | 0.521 | 0.456 | 0.484 | 0.361
4 | LERFIYNPEEF [HLA-DPB1_Y59_R61P_YF] | 0.866 | 0.791 | 0.399 | 1.71 | 2.4 | 1.32 | 0.927 | 2.02 | 0.738 | 1.75 | 1.75 | 0.618 | 1.09 | 0.934 | 1.33 | 0.708
5 | FDFKKYGKGLR [ZNF445_Y433_YF] | 0.751 | 1.19 | 1.14 | 0.498 | 0.484 | 0.525 | 0.304 | 0.531 | 0.426 | 0.318 | 0.671 | 0.389 | 0.392 | 0.575 | 0.45 | 0.436
6 | HLEKKYVRRDS [CSF1R_Y708] | 1.25 | 1.02 | 0.876 | 0.997 | 4.16 | 6.5 | 1.67 | 2.92 | 1.61 | 1.64 | 4.2 | 6.59 | 2.1 | 2.42 | 1.23 | 2.23
7 | VTRLRYPVCFG [ITK_Y336] | 1.01 | 1.05 | 1.06 | 0.877 | 0.467 | 0.825 | 0.487 | 0.815 | 0.528 | 0.453 | 1.07 | 0.471 | 0.756 | 0.467 | 0.555 | 0.543
8 | LLKAGYQGVLR [TTPA_Y100_H101Q] | 1.3 | 1.38 | 1.23 | 0.565 | 0.311 | 0.55 | 0.425 | 0.502 | 0.648 | 0.265 | 0.73 | 0.459 | 0.442 | 0.67 | 0.713 | 0.366
9 | SLIDGYFRLTA [JAK2_Y372_YF] | 5.5 | 1.01 | 1.13 | 0.875 | 0.483 | 5.46 | 0.514 | 1.1 | 0.539 | 0.493 | 1.26 | 0.429 | 0.732 | 0.605 | 0.583 | 0.716
10 | VLNHAYENLTR [SYNE2_Y3255_D3253H] | 1.89 | 26.7 | 10.5 | 0.625 | 0.405 | 0.507 | 0.417 | 0.565 | 0.366 | 0.33 | 0.579 | 0.303 | 0.5 | 0.494 | 0.383 | 0.4
11 | RVFRDYVLKSA [HTATIP2_Y111_D108Y_YF] | 1.27 | 0.668 | 0.749 | 0.605 | 0.45 | 1.05 | 0.527 | 0.889 | 0.648 | 0.572 | 1.15 | 0.548 | 0.999 | 0.79 | 0.591 | 0.533
12 | ASTDFNKRGDF [PDHA1_Y243_Y243N_YF] | 0.706 | 0.705 | 0.612 | 0.378 | 0.44 | 0.53 | 0.347 | 0.511 | 0.297 | 0.365 | 0.585 | 0.418 | 0.521 | 0.373 | 0.462 | 0.341
13 | FPDFVYKCIKA [DPYSL2_Y479_R481C] | 0.727 | 0.818 | 0.538 | 0.788 | 0.595 | 1.44 | 0.533 | 1.35 | 0.691 | 0.51 | 1.39 | 0.446 | 0.95 | 0.616 | 0.563 | 0.613
14 | PASLSYLSFEG [EXOSC3_Y143] | 1.11 | 0.762 | 0.696 | 0.742 | 1.1 | 1.18 | 0.501 | 0.942 | 0.745 | 0.819 | 0.954 | 0.661 | 0.619 | 0.591 | 0.602 | 0.789
15 | QEMMEYRRQIQ [DES_Y324_H326R] | 0.734 | 0.737 | 0.401 | 0.607 | 0.563 | 1.18 | 0.644 | 0.878 | 0.523 | 0.491 | 0.92 | 0.455 | 0.428 | 0.424 | 0.355 | 0.601
16 | SSSNPYSTVTV [ACTN2_Y599_M604V] | 12.3 | 0.667 | 3.35 | 0.483 | 1.29 | 0.383 | 9.71 | 0.432 | 0.342 | 0.733 | 0.597 | 0.464 | 0.567 | 0.745 | 0.82 | 0.359
17 | DPKFHYDNTAG [KDR_Y1214] | 0.646 | 0.989 | 0.738 | 0.489 | 0.547 | 0.698 | 0.401 | 0.667 | 0.373 | 0.524 | 0.79 | 0.505 | 0.497 | 0.467 | 0.496 | 0.422

Row | Sequence | SH2 binding enrichment (SHP2-C SH2) | SH2 binding enrichment (Grb2 SH2) | SH2 binding enrichment (c-Src SH2) | phosphorylation enrichment (FGFR3) | phosphorylation enrichment (c-Src) | phosphorylation enrichment (Jak2) | phosphorylation enrichment (Fer (mouse)) | phosphorylation enrichment (AncSZ) | phosphorylation enrichment (EPHB1) | phosphorylation enrichment (Fyn) | phosphorylation enrichment (Fes) | phosphorylation enrichment (MERTK) | phosphorylation enrichment (c-Abl (mouse)) | phosphorylation enrichment (FGFR1) | phosphorylation enrichment (Hck) | phosphorylation enrichment (EPHB2)
18 | TAGFSYEKWEI [TEC_Y360] | 0.701 | 0.706 | 0.484 | 0.72 | 0.463 | 1 | 1.46 | 1.52 | 0.472 | 0.503 | 1.21 | 0.549 | 0.694 | 0.533 | 0.536 | 0.577
19 | VSSPKYGSDDE [TMCC2_Y473] | 0.93 | 1.13 | 0.556 | 0.713 | 0.619 | 0.926 | 0.553 | 0.968 | 0.559 | 0.556 | 1.01 | 0.464 | 0.992 | 0.46 | 0.429 | 0.505
20 | CTTIHYNFMCH [TP53_Y234_N239H_YF] | 1.92 | 1.73 | 1.75 | 0.552 | 0.471 | 0.75 | 0.478 | 0.866 | 0.558 | 0.533 | 0.97 | 0.444 | 0.543 | 0.507 | 0.441 | 0.547
21 | RDLRTYIMPAH [PNMT_Y256] | 0.734 | 0.965 | 0.777 | 0.518 | 0.623 | 0.893 | 0.419 | 0.921 | 5.27 | 0.577 | 0.866 | 0.572 | 0.772 | 0.694 | 0.682 | 0.815
22 | DLAAQYTTVGH [SGSH_Y240_R245H] | 1.41 | 0.843 | 3.24 | 0.651 | 0.699 | 0.586 | 0.519 | 0.854 | 0.463 | 0.585 | 0.947 | 0.405 | 0.593 | 0.462 | 0.96 | 0.453
23 | RFLERYIYNRE [HLA-DPB1_Y57] | 1.45 | 1.3 | 1.28 | 0.784 | 0.849 | 0.451 | 0.546 | 0.77 | 0.852 | 0.842 | 0.949 | 0.533 | 0.533 | 0.495 | 1.73 | 0.683
24 | DPLLTYWFPPK [LMNA_Y481_R482W] | 0.797 | 1.19 | 0.67 | 6.67 | 6.1 | 5.74 | 0.933 | 2.78 | 12.6 | 6.5 | 1.13 | 9.17 | 11.6 | 8.47 | 7.34 | 14.8
25 | ETLLYYGYRRS [POR_Y564_C566Y] | 1 | 0.756 | 0.474 | 1.18 | 10.7 | 5.24 | 0.766 | 1.21 | 1.21 | 9.27 | 0.806 | 6.93 | 9.52 | 1.3 | 14.6 | 1.06
26 | PVQAVYQKVVA [HBB_Y131_A130V] | 1.01 | 0.913 | 1.3 | 0.617 | 1.61 | 0.289 | 1.14 | 0.373 | 0.727 | 0.677 | 0.532 | 1.47 | 0.203 | 0.421 | 1.75 | 0.578
27 | QNKEDYAGLKE [GSTO1_Y139] | 0.902 | 0.69 | 0.803 | 1.73 | 1.01 | 1.24 | 2.22 | 1.34 | 0.494 | 0.919 | 1.6 | 1.09 | 1.37 | 0.893 | 0.82 | 1.29
28 | CTTIHYNYMCN [TP53_Y234] | 2.41 | 1.25 | 4.14 | 0.692 | 0.469 | 0.661 | 0.557 | 0.853 | 0.762 | 0.453 | 0.903 | 0.485 | 0.471 | 0.539 | 0.482 | 0.696
29 | ETRWKYHFEVV [GCNT3_Y267] | 0.678 | 0.712 | 0.437 | 1.04 | 0.364 | 1.35 | 0.57 | 1.42 | 0.701 | 0.439 | 1.52 | 0.418 | 0.979 | 0.505 | 0.563 | 0.706
30 | DVMDFYKTLRG [NR3C1_Y30] | 0.537 | 0.718 | 0.47 | 0.484 | 0.342 | 0.685 | 0.41 | 0.719 | 0.404 | 0.451 | 0.728 | 0.394 | 0.571 | 0.393 | 0.434 | 0.423
31 | KRGIDYILRHM [FRMD1_Y225] | 1.99 | 1.95 | 1.68 | 0.592 | 0.387 | 0.654 | 0.415 | 0.792 | 0.494 | 0.414 | 0.872 | 0.396 | 0.567 | 0.457 | 0.396 | 0.463
32 | EREYKYGAHKY [OAT_Y50_N54K] | 0.639 | 0.735 | 0.564 | 0.441 | 0.359 | 0.509 | 0.398 | 0.626 | 0.376 | 0.369 | 0.625 | 0.436 | 0.571 | 0.414 | 0.392 | 0.452
33 | KDHPDYKYQLR [SOX10_Y171_P175L] | 0.793 | 0.93 | 0.631 | 0.491 | 0.411 | 0.656 | 0.418 | 0.665 | 0.417 | 0.403 | 0.704 | 0.38 | 0.696 | 0.432 | 0.431 | 0.395
34 | LSCVIYVILRK [PMP22_Y153_G150C] | 2.02 | 2.2 | 1.75 |  | 1.06 | 1.83 |  |  |  |  |  |  | 1.39 |  |  | 
